This is an account of results in paper PMC6972956.

The target of assay [1] is recombinant integrin αIIbβ3 stably expressed on K562 cells (UniProt P08514). Briefly: flow cytometry on cells; mAb PT-25-activated αIIbβ3-K562 cells incubated 30 min at RT with serially diluted unlabeled Hr10, hFN10 or eptifibatide in the presence of 0.5 µM Alexa647-conjugated FB; buffer A. (Flow cytometry measures light scatter and fluorescence of single cells or particles in a stream.)

The target in assay [2] is recombinant integrin αVβ3 stably expressed on K562 cells (UniProt P06756). Description: flow cytometry on cells; displacement of Alexa647-labeled hFN10 from αVβ3-K562 cells by unlabeled hFN10 or Hr10; buffer A (1 mM MgCl2, 1 mM CaCl2), RT.

pIC50: −log10 of the molar value.

Chain of UniProt P06756 (P06756 31-1048, chain 1 of 2): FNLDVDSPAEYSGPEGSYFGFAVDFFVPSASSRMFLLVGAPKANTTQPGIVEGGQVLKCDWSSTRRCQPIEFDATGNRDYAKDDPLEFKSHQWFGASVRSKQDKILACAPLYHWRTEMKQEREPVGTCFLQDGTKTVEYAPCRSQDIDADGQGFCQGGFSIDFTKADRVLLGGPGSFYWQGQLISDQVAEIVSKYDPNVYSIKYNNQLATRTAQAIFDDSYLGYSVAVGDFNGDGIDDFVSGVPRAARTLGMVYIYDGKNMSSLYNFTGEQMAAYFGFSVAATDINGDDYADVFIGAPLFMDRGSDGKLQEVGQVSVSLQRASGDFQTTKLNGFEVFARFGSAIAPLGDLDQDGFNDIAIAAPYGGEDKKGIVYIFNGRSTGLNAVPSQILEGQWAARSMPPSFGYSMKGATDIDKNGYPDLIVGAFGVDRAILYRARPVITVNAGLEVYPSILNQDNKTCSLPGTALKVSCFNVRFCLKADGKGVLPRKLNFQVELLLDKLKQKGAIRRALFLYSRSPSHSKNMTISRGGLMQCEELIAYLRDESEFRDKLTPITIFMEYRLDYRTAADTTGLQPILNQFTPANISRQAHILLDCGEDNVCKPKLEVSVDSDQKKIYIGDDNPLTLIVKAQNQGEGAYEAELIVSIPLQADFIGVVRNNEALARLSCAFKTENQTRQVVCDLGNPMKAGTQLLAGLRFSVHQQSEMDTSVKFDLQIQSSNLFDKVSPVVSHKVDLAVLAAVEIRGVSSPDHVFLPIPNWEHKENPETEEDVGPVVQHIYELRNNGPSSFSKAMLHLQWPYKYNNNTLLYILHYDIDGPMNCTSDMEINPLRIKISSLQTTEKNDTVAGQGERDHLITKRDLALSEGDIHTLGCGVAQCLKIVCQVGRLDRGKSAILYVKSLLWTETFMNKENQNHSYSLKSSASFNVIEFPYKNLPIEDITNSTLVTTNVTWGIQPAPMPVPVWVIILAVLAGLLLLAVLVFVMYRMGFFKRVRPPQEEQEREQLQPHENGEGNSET
Chain of UniProt P06756 (P05106 27-788, chain 2 of 2, further chain): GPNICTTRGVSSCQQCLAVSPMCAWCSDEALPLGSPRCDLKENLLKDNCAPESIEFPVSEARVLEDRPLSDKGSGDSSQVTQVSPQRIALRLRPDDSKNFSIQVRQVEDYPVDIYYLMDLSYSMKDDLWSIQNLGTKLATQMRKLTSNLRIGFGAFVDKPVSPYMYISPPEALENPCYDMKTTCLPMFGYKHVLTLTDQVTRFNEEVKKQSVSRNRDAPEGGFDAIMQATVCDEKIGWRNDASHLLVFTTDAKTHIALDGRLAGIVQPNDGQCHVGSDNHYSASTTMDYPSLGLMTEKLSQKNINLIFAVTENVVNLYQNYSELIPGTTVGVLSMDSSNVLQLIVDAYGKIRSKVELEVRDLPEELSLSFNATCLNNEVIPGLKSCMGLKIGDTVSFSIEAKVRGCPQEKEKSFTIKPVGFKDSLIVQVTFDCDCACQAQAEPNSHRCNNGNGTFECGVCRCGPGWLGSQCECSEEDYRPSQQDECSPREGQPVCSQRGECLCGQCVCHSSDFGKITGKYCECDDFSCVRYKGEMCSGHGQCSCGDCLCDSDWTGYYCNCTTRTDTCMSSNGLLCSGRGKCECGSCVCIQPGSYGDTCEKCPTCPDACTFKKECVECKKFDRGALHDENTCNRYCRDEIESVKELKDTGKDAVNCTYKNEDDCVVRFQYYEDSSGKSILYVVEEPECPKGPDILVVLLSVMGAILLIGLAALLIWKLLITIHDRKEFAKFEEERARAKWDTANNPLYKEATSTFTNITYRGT

For the substance eptifibatide (peptide), the pIC50 (usually the IC50 on a negative log10 scale, so that one unit is a factor of ten) in assay [1] is 7.14.
For “hFN10 (from UniProt P02751 1539-1631) (designed binder)”, the pIC50 in assay [2] is 8.44; in assay [1], 6.32.
